According to patent US20230374148A1, “BINDING MOLECULES THAT MULTIMERISE CD45” (UCB BIOPHARMA SRL, priority 2020, published 2023):
Several values for one entry are separate records, joined by “and”; a condition that tells them apart may be missing. Identical values can stand only once. Marks after values point to notes of the source that are not given here.

Experiments:
Format in all cases: cell-based
OCI-Ly3 = test: Apoptosis of cell lines: OCI-Ly3; settings: OCI-Ly3, 21 hrs
Excerpt: (§1) The following cell lines representing various leukaemia's and lymphoma's, as classified by ATCC (www.atcc.org/), were used: Jurkat—acute T-cell leukaemia; CCRF-SB—B-cell acute lymphoblastic leukaemia; MC116—B-cell undifferentiated lymphoma; Raji, Ramos—Burkitt lymphoma (rare form of B-cell non-Hodgkin lymphoma); SU-DHL-4, SU-DHL-5, SU-DHL-8, NU-DUL-1, OCI-Ly3—Diffuse large B-cell lymphoma; THP-1—acute monocytic leukaemia; and Dakiki—B cell nasopharyngeal carcinoma.
(§2) Prior to an assay being performed, 1 vial of each of the above cell lines was thawed in a 37° C. water bath and then added to 20 ml complete media (RPMI 1640+2 mM GlutaMAX+1% Pen/Strep, all previous supplied by Invitrogen, +10% Fetal Bovine Serum (FBS), Sigma Aldrich). Cells were spun (500 g, 5 min, at RT) and re-suspended in 20 ml complete media to wash and spun again. Cells were resuspended in 10 ml complete media and then counted using a ChemoMetec NucleoCounter NC-3000. 6×10^6 cells of each cell line were spun (500 g, 5 min, at RT) and re-suspended in 4.8 ml complete media. 1×10^5 cells in 80 μl were then added to each well of a Corning Costar 96-well, cell culture treated, U-shaped-bottom microplate (cat no. 07-200-95). The plate was rested in a 37° C., 5% CO2 incubator for 2 hrs
(§3) Stocks of 4133-6294 BYbe and NegCtrl BYbe at 2500 nM in complete media were prepared. In a Greiner 96-well non-binding microplate, both reagents were serially diluted in complete media 1 in 5, seven times to produce to form an 8-point dose curve. […] (final well concentrations 500-0.0064 nM) was added to the cells. Each concentration was produced in triplicate. Camptothecin (cat no. C9911-100MG, Sigma Aldrich) and Staurosporine (cat no. 56942-200UL, Sigma Aldrich) were added as positive controls of apoptosis. Both were diluted in complete media and added to the well to produce a final concentration of 5 μM. Additional positive controls included anti-thymocyte globulin (ATG, indicated by FDA for use in conditioning regimens), Rituximab (anti-CD20, indicated by FDA for Non-Hodgkin Lymphoma and Chronic Lymphocytic Leukaemia) and Campath (anti-CD52, indicated by FDA for B-cell Chronic Lymphocytic Leukaemia). Anti-thymocyte globulin, Rituximab and Campath were added to the wells to produce final concentrations of 200 μg/ml, 500 nM and 200 μg/ml, respectively. […]
(§4) Following the incubation, the plates were spun at 500 g, 5 min, RT, the buffer was aspirated with a BioTek ELx405 microplate washer, and the cells were re-suspended in FACS buffer (PBS+1% bovine serum albumin (BSA)+0.1% NaN3+2 mM EDTA, Sigma Aldrich) to wash and then re-spun and buffer was aspirated to leave the cells in 20 μl residual media. […] Cells were analysed using the Bio-Rad ZE5 Cell Analyzer. […]

Raji = test: Apoptosis of cell lines: Raji; settings: 21 hrs
Excerpt: as §1, §2, §3, §4

MC116 = test: Apoptosis of cell lines: MC116; settings: MC116, 21 hrs
Excerpt: as §1, §2, §3, §4

SU-DHL-8 = test: Apoptosis of cell lines: SU-DHL-8; settings: SU-DHL-8, 21 hrs
Excerpt: as §1, §2, §3, §4

NU-DUL-1 = test: Apoptosis of cell lines: NU-DUL-1; settings: NU-DUL-1, 21 hrs
Excerpt: as §1, §2, §3, §4

SU-DHL-5 = test: Apoptosis of cell lines: SU-DHL-5; settings: SU-DHL-5, 21 hrs
Excerpt: as §1, §2, §3, §4

CCRF-SB = test: Apoptosis of cell lines: CCRF-SB; settings: 21 hrs
Excerpt: as §1, §2, §3, §4

THP-1 = test: Apoptosis of cell lines: THP-1; settings: THP-1, 21 hrs
Excerpt: as §1, §2, §3, §4

Ramos = test: Apoptosis of cell lines: Ramos; settings: 21 hrs
Excerpt: as §1, §2, §3, §4

Campath: anti-CD52, clinical grade, indicated by FDA for B-cell Chronic Lymphocytic Leukaemia; positive control [reference compound]
Campath mean (%) cell reduction (OCI-Ly3; 200 μg/ml): 6.72%
Campath mean (%) cell reduction (Raji; 200 μg/ml): 36.00%
Campath mean (%) cell reduction (MC116; 200 μg/ml): 70.24%
Campath mean (%) cell reduction (SU-DHL-8; 200 μg/ml): 7.97%
Campath mean (%) cell reduction (NU-DUL-1; 200 μg/ml): 67.49%
Campath mean (%) cell reduction (SU-DHL-5; 200 μg/ml): 26.74%
Campath mean (%) cell reduction (CCRF-SB; 200 μg/ml): 24.86%
Campath mean (%) cell reduction (THP-1; 200 μg/ml): 15.40%
Campath mean (%) cell reduction (Ramos; 200 μg/ml): 39.40%

B1: 4133-6294 BYbe: anti-CD45 BYbe (Fab-scFv): 4133 Fab HC-G4S linker-6294 scFv heavy chain paired with 4133 light chain (antibody)
heavy: QEQLVESGGGLVQPEGSLTLTCTASGFSFSGNYYMCWVRQAPGKGLEWIGCLYTGSSGSTYYASWAKGRFTISKTSSTTVTLQMTSLTAADTATYFCARDLGYEIDGYGGLWGQGTLVTVSSGQPKAPSVFPLAPCCGDTPSSTVTLGCLVKGYLPEPVTVTWNSGTLTNGVRTFPSVRQSSGLYSLSSVVSVTSSSQPVTCNVAHPATNTKVDKTVAPSTCSKPGGGGSGGGGSEVQLVESGAELARPGASVKMSCKASGYTFTSYTMHWVKQRPGQCLEWIGYINPSSGYTEYNQKFKDKTTLTADKSSSTAYLQLSSLTSEDSAVYYCARVGDGFYPSWLAYWGQGTLVTVSSGGGGSGGGGSGGGGSGGGGSDIQMTQSPKFLLVSAGDRVTITCKASQSVRNDVAWYQQKPGQSPKLLIFYASKRYTGVPDRFTGSGYGTDFTFTISTVQAEDLAVYFCQQDYSSPTTFGCGTKLEIK
light: AQVLTQTPSPVSAVVGGTVSISCQASQSVYNNNNLSWYQQKPGQPPKLLIYDASKLASGVPSRFKGSGSGTQFTLTISGVQCDDAATYYCLGGYYSSGWYFAFGGGTKVVVKRTPVAPTVLIFPPAADQVATGTVTIVCVANKYFPDVTVTWEVDGTTQTTGIENSKTPQNSADCTYNLSSTLTLTSTQYNSHKEYTCKVTQGTTSVVQSFNRGDC
Bottom (%) level of % cell reduction (OCI-Ly3): 10.54%
Top (%) level of % cell reduction (OCI-Ly3): 39.84% and 39.94%
Bottom (%) level of % cell reduction (Raji): 13.56%
Top (%) level of % cell reduction (Raji): 74.02%
Top (%) level of % cell reduction (MC116): 99.45%
Bottom (%) level of % cell reduction (MC116; calculated bottom of non-sigmoidal curve): −65.46* %
Bottom (%) level of % cell reduction (SU-DHL-8): -2.97%
Top (%) level of % cell reduction (SU-DHL-8): 16.77%
Bottom (%) level of % cell reduction (NU-DUL-1): 5.07%
Top (%) level of % cell reduction (NU-DUL-1): 44.87%
Bottom (%) level of % cell reduction (SU-DHL-5): 43.93%
Top (%) level of % cell reduction (SU-DHL-5): 91.01%
Bottom (%) level of % cell reduction (CCRF-SB): 13.95%
Top (%) level of % cell reduction (CCRF-SB): 83.40%
Bottom (%) level of % cell reduction (THP-1): 8.14%
Top (%) level of % cell reduction (THP-1): 60.72%
Bottom (%) level of % cell reduction (Ramos): 1.61%
Top (%) level of % cell reduction (Ramos): 96.11%
